Measured values: patent publication US20210079111A1 (ABCYTE THERAPEUTICS, published 2021)

Assays:
[1] = biological target: CD19 CAR chain of CD19 CAR-mIL7 (CAR-1-CD19/CAR-2-IL-7, plasmid PC035), on transduced T cells; assay: flow cytometry, CD19 CAR-mIL7 T cells stained with Protein L
[2] = biological target: T1, CD20 on CD20 positive cells (Raji, Nalm-6) (UniProt P11836 1-297, limits assumed); assay: cell-based or functional assay
T1 sequence (looked up): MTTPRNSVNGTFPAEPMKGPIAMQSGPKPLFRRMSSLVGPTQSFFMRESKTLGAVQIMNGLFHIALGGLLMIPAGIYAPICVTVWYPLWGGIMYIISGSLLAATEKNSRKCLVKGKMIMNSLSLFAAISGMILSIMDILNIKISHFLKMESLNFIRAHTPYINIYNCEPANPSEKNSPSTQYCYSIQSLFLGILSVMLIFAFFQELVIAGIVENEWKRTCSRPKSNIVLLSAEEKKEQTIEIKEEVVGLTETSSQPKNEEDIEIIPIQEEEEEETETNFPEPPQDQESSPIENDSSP

[3] = biological target: T2, CD19 on CD19 positive cells (Raji, Nalm-6) (human, UniProt P15391 20-556); assay: cell-based or functional assay
T2 sequence (looked up): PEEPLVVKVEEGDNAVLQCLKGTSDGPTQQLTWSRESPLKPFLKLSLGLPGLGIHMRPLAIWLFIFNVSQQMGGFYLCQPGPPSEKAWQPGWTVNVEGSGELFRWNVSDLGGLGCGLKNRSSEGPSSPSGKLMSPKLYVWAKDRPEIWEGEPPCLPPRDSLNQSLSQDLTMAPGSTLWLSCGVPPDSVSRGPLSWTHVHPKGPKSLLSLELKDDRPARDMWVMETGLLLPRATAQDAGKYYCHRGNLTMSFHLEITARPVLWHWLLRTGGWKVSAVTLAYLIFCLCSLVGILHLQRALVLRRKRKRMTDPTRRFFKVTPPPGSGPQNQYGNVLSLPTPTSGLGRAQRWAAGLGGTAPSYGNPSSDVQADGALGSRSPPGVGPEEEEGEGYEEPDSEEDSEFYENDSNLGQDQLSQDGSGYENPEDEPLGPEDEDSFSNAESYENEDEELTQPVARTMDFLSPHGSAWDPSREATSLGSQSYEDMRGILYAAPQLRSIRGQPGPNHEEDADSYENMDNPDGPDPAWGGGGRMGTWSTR

Protein L gave a percent positive cells [1] of 49%.

B1: CAR-1-CD20 (full humanized anti-CD20 single CAR), on transduced T cells (other)
chain: EIVLTQSPATLSLSPGERATMTCRASSSVNYMDWYQQKPGQAPRPWIYATSNLASGVPARFSGSGSGTDFTLTISSLEPEDFAVYYCQQWSFNPPTFGGGTKVEIKGSTSGGGSGGGSGGGGSSQVQLVQSGAEVKKPGASVKVSCKASGYTFTSYNMHWVRQAPGQGLEWIGAIYPGNGDTSYNQKFKGKATLTRDTSTSTVYMELSSLRSEDTAVYYCARSNYYGSSYWFFDVWGQGTTVTVSSTTTPAPRPPTPAPTIASQPLSLRPEACRPAAGGAVHTRGLDFACDFWLPIGCAAFVVVCILGCILICWLTKKKYSSSVHDPNGEYMFMRAVNTAKKSRLTDVTLRVKFSRSADAPAYKQGQNQLYNELNLGRREEYDVLDKRRGRDPEMGGKPRRKNPQEGLYNELQKDKMAEAYSEIGMKGERRRGKGHDGLYQGLSTATKDTYDALHMQALPPR
For B1, the “target cell killing at E/T ratio at 10:1, 4 h, Raji and Nalm-6 co-culture (flow cytometry, CFSE/Annexin/PI)” value [2] was over 80%.

B2: CAR-1-CD19 (full humanized anti-CD19 single CAR), on transduced T cells (other)
chain: DIQMTQSPSSLSASVGDRVTITCRASQDISKYLNWYQQKPGKAPKLLIYHTSRLHSGVPSRFSGSGSGTDYTLTISSLQPEDFATYYCQQGNTLPYTFGGGTKVEIKGSTSGGGSGGGSGGGGSSQVQLQESGPGLVKPSQTLSLTCTVSGVSLPDYGVSWIRQPPGKGLEWLGVIWGSETTYYNSALKSRLTISRDNSKNTLYLQMNSLRAEDTAVYYCAKHYYYGGSYAMDYWGQGTTVTVSSTTTPAPRPPTPAPTIASQPLSLRPEACRPAAGGAVHTRGLDFACDFWLPIGCAAFVVVCILGCILICWLTKKKYSSSVHDPNGEYMFMRAVNTAKKSRLTDVTLRVKFSRSADAPAYKQGQNQLYNELNLGRREEYDVLDKRRGRDPEMGGKPRRKNPQEGLYNELQKDKMAEAYSEIGMKGERRRGKGHDGLYQGLSTATKDTYDALHMQALPPR
With B2 the “target cell killing at E/T ratio at 10:1, 4 h, Raji and Nalm-6 co-culture (flow cytometry, CFSE/Annexin/PI)” value [3] was over 90%.
